Laboratory results reported in patent publication US20200246383A1 (REGENTS OF THE UNIVERSITY OF MINNESOTA, published 2020).

Assays:
[1] = target: T1, recombinant human dipeptidyl peptidase IV (hDPP-IV), biotinylated (human, UniProt P27487 29-766, limits assumed, biotinylated); experiment: ELISA: B12 IgG 0.1 to 500 nM on biotinylated hDPP-IV captured on streptavidin-coated wells; detection with peroxidase anti-human IgG mAb; OD 450nm
T1 construct: also called human DPP-IV
Procedure: FIG. 2A-FIG. 2E show in vitro characterization of the anti-FAP monoclonal antibody B12 immunoglobulin G (IgG). FIG. 2A. B12 IgG specificity for human fibroblast activation protein alpha (hFAP) (circle), mouse fibroblast activation protein alpha (mFAP) (square), and the homologous protease human dipeptidyl peptidase IV (hDPP-IV) (triangle) was determined by enzyme-linked immunosorbent assay (ELISA). B12 IgG was serial-diluted from 500 nM to 0.1 nM and added to protein coated wells. B12 IgG binding was detected by a peroxidase conjugated […] monoclonal antibody. FIG. 2B. […] FIG. 2C. B12 IgG binding to membrane-bound FAP was analyzed by flow cytometry. […] Unstained cells (blue line) were used as a negative control. FIG. 2D. mRNA levels of hDPP-IV were investigated by quantitative RT-PCR in prostate (R1-EnzR, R1-EnzR^FAP, PC3) and colon (Caco2) cancer cells. mRNA fold change is normalized to R1-EnzR. **p 0.01. FIG. 2E.
Dilution ELISA: A MaxiSorp plate was coated and blocked as described above. 50 μL of biotinylated human FAP, murine FAP, or human DPP-IV ([…] in PBS, 1% BSA, 0.005% Tween20) was added to 8 sets of triplicate wells each. […] B12 IgG binding was detected with a 1:1000 dilution of anti-human IgG monoclonal antibody conjugated to peroxidase (sc-2769, Santa Cruz Biotechnology, Dallas, Tex.) in PBS, 1% BSA.

[2] = target: T2, human dipeptidyl peptidase IV expressed on cells (PC3 and CaCo2 cells) (human, UniProt P27487 1-766); experiment: flow cytometry, Alexa Fluor 488 conjugated B12 IgG on hDPP-IV-expressing PC3 cells against unstained cells
T2 construct: whole, on cells; also called hDPP-IV-expressing cells; hDPP-IV-positive cell lines
T2 sequence (P27487 whole entry): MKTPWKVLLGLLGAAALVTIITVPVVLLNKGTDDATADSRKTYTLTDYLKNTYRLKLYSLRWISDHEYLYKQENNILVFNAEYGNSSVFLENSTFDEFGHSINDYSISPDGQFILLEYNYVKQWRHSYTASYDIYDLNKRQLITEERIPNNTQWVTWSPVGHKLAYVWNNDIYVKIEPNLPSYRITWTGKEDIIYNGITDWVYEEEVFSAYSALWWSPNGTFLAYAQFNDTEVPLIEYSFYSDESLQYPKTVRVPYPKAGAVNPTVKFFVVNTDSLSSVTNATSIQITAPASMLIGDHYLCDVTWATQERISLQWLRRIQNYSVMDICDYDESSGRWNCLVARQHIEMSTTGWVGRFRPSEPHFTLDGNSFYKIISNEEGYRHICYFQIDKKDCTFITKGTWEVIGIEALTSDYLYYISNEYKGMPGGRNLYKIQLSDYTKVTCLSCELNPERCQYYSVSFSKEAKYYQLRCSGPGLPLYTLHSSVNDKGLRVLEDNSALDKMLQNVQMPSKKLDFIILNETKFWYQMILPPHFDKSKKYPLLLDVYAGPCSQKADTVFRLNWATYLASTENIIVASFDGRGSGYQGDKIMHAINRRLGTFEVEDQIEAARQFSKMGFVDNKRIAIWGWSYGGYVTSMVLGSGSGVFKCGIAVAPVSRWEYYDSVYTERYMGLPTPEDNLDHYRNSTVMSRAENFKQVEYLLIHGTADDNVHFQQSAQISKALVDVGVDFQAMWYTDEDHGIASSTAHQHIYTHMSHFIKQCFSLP

T1 sequence (P27487 29-766 limits assumed): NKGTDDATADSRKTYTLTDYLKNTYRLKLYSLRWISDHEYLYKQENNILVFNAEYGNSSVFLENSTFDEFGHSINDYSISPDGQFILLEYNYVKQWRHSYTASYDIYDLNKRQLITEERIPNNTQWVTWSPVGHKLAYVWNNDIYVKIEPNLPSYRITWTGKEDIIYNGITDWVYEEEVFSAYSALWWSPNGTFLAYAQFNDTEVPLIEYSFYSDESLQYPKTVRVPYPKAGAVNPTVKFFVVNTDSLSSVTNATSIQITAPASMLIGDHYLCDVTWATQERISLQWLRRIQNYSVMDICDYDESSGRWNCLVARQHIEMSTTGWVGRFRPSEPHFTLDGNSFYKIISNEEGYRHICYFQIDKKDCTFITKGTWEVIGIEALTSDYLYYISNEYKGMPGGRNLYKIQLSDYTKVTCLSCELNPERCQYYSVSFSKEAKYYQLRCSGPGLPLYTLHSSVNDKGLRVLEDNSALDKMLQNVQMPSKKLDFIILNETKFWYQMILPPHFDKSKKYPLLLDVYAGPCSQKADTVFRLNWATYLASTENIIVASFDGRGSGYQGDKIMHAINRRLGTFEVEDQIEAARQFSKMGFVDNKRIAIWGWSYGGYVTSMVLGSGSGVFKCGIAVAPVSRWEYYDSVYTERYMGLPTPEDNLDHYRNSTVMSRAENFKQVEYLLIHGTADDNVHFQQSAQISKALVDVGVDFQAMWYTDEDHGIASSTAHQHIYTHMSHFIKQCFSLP

binding result [1]: no binding (tested: 500 nM) | binding result [2]: no binding (tested: 100 nM)
B1: B12 IgG (chimeric anti-FAP monoclonal antibody: murine B12 variable domains in a full-length human IgG) (antibody, V domains shown)
VH: EVMLVESGGGLVQPGGSLKLSCAASGFTFSSYGMSWVRQTPDKRLELVATINSNGGSTYYPDSVKGRFTISRDNAKNTLYLQMSSLKSEDTAMYYCARDYFDYWGQGTTLTVSS
VL: DIVITQSPSSLSASLGERVSLTCRASQEISGYLSWLQQKPDGTIKLIYAASTLDSGVPKRFSGSRSGSDYSLTISSLESEDFADYYCLQYASYPWTFGGGTKLEIKR
notes: They were cloned into pFUSEss human IgG expression vectors (Invivogen) and expressed in HEK293T cells; capture was detected with an anti-human IgG1 secondary and the isotype control is human IgG1; also called anti-FAP mAb; aFAP
